Measurements as given in US20240141039A1 (AGENUS, published 2024).

T1: full-length isoform 2 ECD of human CD96 with a C89S mutation (His-tagged) (human, UniProt P40200 22-519)
T1 construct: also called His-tagged isoform 2 of human CD96 with a C89S mutation; human CD96 extracellular domain isoform 2 C89S
T1 sequence: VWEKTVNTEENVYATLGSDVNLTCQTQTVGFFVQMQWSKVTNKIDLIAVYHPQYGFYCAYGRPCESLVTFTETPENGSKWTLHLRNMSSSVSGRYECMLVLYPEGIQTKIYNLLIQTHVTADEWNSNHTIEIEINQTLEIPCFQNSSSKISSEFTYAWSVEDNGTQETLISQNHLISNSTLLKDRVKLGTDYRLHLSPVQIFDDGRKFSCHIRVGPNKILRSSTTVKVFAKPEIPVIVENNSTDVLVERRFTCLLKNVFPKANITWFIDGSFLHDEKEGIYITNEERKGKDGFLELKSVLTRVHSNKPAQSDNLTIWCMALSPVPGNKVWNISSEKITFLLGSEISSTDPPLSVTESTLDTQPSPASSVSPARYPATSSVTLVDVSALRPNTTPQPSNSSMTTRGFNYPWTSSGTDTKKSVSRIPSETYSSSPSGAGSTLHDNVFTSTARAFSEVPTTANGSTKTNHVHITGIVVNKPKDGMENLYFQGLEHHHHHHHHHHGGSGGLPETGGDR

T2: wild type full-length human CD96 isoform 2 expressed on CHO cells (human, UniProt P40200-2 22-569)
T2 construct: whole, on cells; also called human CD96-CHO (isoform 2); human CD96 (iso2) CHO cells
T2 sequence (looked up): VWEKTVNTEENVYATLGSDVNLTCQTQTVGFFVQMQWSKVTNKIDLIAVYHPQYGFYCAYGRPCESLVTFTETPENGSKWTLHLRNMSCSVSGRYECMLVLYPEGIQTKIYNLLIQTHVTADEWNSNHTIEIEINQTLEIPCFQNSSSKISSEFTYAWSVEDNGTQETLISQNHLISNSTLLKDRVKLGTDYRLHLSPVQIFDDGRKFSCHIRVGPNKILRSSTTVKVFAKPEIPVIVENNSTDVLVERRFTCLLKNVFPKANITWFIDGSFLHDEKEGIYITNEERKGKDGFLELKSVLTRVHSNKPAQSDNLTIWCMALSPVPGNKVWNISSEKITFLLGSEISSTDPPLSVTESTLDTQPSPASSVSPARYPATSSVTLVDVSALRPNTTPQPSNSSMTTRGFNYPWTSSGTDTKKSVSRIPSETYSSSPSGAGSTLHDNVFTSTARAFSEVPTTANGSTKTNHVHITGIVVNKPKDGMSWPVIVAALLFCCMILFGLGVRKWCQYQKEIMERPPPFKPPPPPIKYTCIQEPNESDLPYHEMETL

B1: anti-TIGIT×CD96 multispecific molecule BA123 (bispecific antibody, human IgG1, kappa, lambda)
heavy 1: QVQLVQSGAEVKKPGASVKVSCKASGYTFTSYGISWVRQAPGQGLEWMGWISAYNANTNYAQKLQGRVTMTTDTSTSTAYMELRSLRSDDTAVYYCARSAGVLGGMDVWGRGTLVTVSSASTKGPSVFPLAPSSKSTSGGTAALGCLVKDYFPEPVTVSWNSGALTSGVHTFPAVLQSSGLYSLSSVVTVPSSSLGTQTYICNVNHKPSNTKVDKRVEPKSCDKTHTCPPCPAPELLGGPDVFLFPPKPKDTLMISRTPEVTCVVVDVSHEDPEVKFNWYVDGVEVHNAKTKPREEQYNSTYRVVSVLTVLHQDWLNGKEYKCKVSNKALPAPIEKTISKAKGQPREPQVYTLPPSREEMTKNQVSLSCAVKGFYPSDIAVEWESNGQPENNYKTTPPVLDSDGSFFLVSKLTVDKSRWQQGNVFSCSVMHEALHNHYTQKSLSLSPG
light 1: not shown
heavy 2: EVQLVQSGAEVKKPGSSVKVSCKASGYTFASYGISWVRQAPGQGLEWMGGITPFFNRVDVAEKFQGRVTITADKSTSTAYIELSSLRSEDTAVYYCARDLRRGGVGDAFDIWGRGTLVTVSSASTKGPSVFPLAPSSKSTSGGTAALGCLVKDYFPEPVTVSWNSGALTSGVHTFPAVLQSSGLYSLSSVVTVPSSSLGTQTYICNVNHKPSNTKVDKRVEPKSCDKTHTCPPCPAPELLGGPDVFLFPPKPKDTLMISRTPEVTCVVVDVSHEDPEVKFNWYVDGVEVHNAKTKPREEQYNSTYRVVSVLTVLHQDWLNGKEYKCKVSNKALPLPEEKTISKAKGQPREPQVYTLPPSREEMTKNQVSLWCLVKGFYPSDIAVEWESNGQPENNYKTTPPVLDSDGSFFLYSKLTVDKSRWQQGNVFSCSVMHEALHNHYTQKSLSLSPG
light 2: QSALTQPRSVSGSPGQSVTISCTGTSPDVGSHAYRSWYQQHPGKAPKLMIYEVSYRPSGVSNRFSGSKSGNTASLTISGLQAEDEADYYCSSYPPSSATVFGAGTKLTVLGQPKAAPSVTLFPPSSEELQANKATLVCLISDFYPGAVTVAWKADSSPVKAGVETTTPSKQSNNKYAASSYLSLTPEQWKSHRSYSCQVTHEGSTVEKTVAPTEC
notes: copies: 1 + 1 + 1 + 1
B2: anti-TIGIT×CD96 multispecific molecule BA127 (bispecific antibody, human IgG1, kappa, lambda)
heavy 1: QVQLVQSGAEVKKPGASVKVSCKASGYTFTTYALHWVRQAPGQRLEWMGWINTGSGDTKYSQKFQGRVTITRDTSASTAYMELSSLRSEDTAVYYCARSLGVYYGMDVWGQGTLVTVSSASTKGPSVFPLAPSSKSTSGGTAALGCLVKDYFPEPVTVSWNSGALTSGVHTFPAVLQSSGLYSLSSVVTVPSSSLGTQTYICNVNHKPSNTKVDKRVEPKSCDKTHTCPPCPAPELLGGPDVFLFPPKPKDTLMISRTPEVTCVVVDVSHEDPEVKFNWYVDGVEVHNAKTKPREEQYNSTYRVVSVLTVLHQDWLNGKEYKCKVSNKALPAPIEKTISKAKGQPREPQVYTLPPSREEMTKNQVSLSCAVKGFYPSDIAVEWESNGQPENNYKTTPPVLDSDGSFFLVSKLTVDKSRWQQGNVFSCSVMHEALHNHYTQKSLSLSPG
light 1: not shown
heavy 2: EVQLVQSGAEVKKPGSSVKVSCKASGYTFASYGISWVRQAPGQGLEWMGGITPFFNRVDVAEKFQGRVTITADKSTSTAYIELSSLRSEDTAVYYCARDLRRGGVGDAFDIWGRGTLVTVSSASTKGPSVFPLAPSSKSTSGGTAALGCLVKDYFPEPVTVSWNSGALTSGVHTFPAVLQSSGLYSLSSVVTVPSSSLGTQTYICNVNHKPSNTKVDKRVEPKSCDKTHTCPPCPAPELLGGPDVFLFPPKPKDTLMISRTPEVTCVVVDVSHEDPEVKFNWYVDGVEVHNAKTKPREEQYNSTYRVVSVLTVLHQDWLNGKEYKCKVSNKALPLPEEKTISKAKGQPREPQVYTLPPSREEMTKNQVSLWCLVKGFYPSDIAVEWESNGQPENNYKTTPPVLDSDGSFFLYSKLTVDKSRWQQGNVFSCSVMHEALHNHYTQKSLSLSPG
light 2: QSALTQPRSVSGSPGQSVTISCTGTSPDVGSHAYRSWYQQHPGKAPKLMIYEVSYRPSGVSNRFSGSKSGNTASLTISGLQAEDEADYYCSSYPPSSATVFGAGTKLTVLGQPKAAPSVTLFPPSSEELQANKATLVCLISDFYPGAVTVAWKADSSPVKAGVETTTPSKQSNNKYAASSYLSLTPEQWKSHRSYSCQVTHEGSTVEKTVAPTEC
notes: Anti-CD96 arm = BA139, anti-TIGIT arm = BA150; copies: 1 + 1 + 1 + 1

Key:
[1] = target: T1, full-length isoform 2 ECD of human CD96 …; assay: SPR Biacore T200, geomean of experiments #1 and #2
Method: (§1) Briefly, surface plasmon resonance experiments were performed using a Biacore T200 instrument, and the association rate (kₐ), dissociation rate (kd), and dissociation constant (KD) were calculated from each experiment using a 1:1 binding model with Biacore T200 Evaluation Software.
(§2) Multispecific molecules were captured using a 30-sec injection at a flow rate of 10 μl/min to reach about 350 resonance units (RUs). […] The sensor chip was regenerated between cycles with two 30-sec injections of 10 mM glycine, pH 1.5. Sensorgrams were evaluated and fit to a simple Langmuir 1:1 interaction model using the global data analysis option of BIAevaluation 3.0 software. Data quality was verified by visually inspecting deviations and curve fitting, and by evaluating the parameters of Rₘₐₓ, Chi2, and Tc.

[2] = target: T3, full-length ECD of cynomolgus monkey TIGIT (His-tagged) (cynomolgus monkey); assay: SPR Biacore T200, geomean of experiments #1 and #2
T3 construct: also called His-tagged cynomolgus monkey TIGIT; cyno TIGIT extracellular domain
Method: as §1, §2

[3] = target: T3, full-length ECD of cynomolgus monkey …; assay: SPR Biacore T200, Protein A capture, 1:1 model, experiment #1
Method: as §1, §2

[4] = target: T2, wild type full-length human CD96 …; assay: flow cytometry on CHO cells expressing human CD96 isoform 2, PE anti-human IgG Fc detection
Method: (§3) For the antibody binding assay, a frozen aliquot of human CD96-CHO cells (isoform 1 or isoform 2) was thawed at 37° C. and then transferred to a tube containing DPBS supplemented with 0.5% Bovine Serum Albumin and 0.05% Sodium Azide (FACS Buffer). Cells were centrifuged at 300 g for five minutes. The supernatant was discarded, and cells resuspended in FACS buffer were seeded in a 96-well U-bottom tissue culture plate at a density of 2×10⁵ cells per well in 50 μL. In a separate microplate, a 2× concentrated intermediate stock of each antibody was prepared. Antibodies were serially diluted 1-to-3 in FACS buffer. A total of 11 working dilutions ranging from 60 μg/mL to 0.001 μg/mL were prepared. Fifty microlitres of each dilution were then transferred to the microplate containing human CD96-CHO cells. The cells were then incubated for 45 minutes at 4° C. […] After a 30-minute incubation on ice, the cells were washed twice with cold FACS Buffer, and the cells were analyzed by flow cytometry (BD LSR Fortessa Flow Cytometer). The data were analyzed using the FlowJo software by sequentially gating the FSC-A vs. SSC-A, and SSC-H vs. SSC-A. Mean fluorescence intensity (MFI) values for PE were calculated, and the data were plotted by GraphPad Prism software.

[5] = target: T2, wild type full-length human CD96 …; assay: flow cytometry, human CD96 (isoform 2) CHO cells, geomean of 2 experiments
Method: as §3

Binder | Kd [1] | Kd [2] | Kd [3] | koff [3] | kon [3] | EC50 (read off the curve) [4] | EC50 [5]
B1 | 81.9 nM | 4.5 nM | 4.78 nM | 0.00132 s⁻¹ | 277000 M⁻¹ s⁻¹ | ~0.2 µg/mL | 0.196 µg/mL
B2 | 19.6 nM | 4 nM | 4.29 nM | 0.00126 s⁻¹ | 294000 M⁻¹ s⁻¹ | ~0.03 µg/mL | 0.0951 µg/mL
